Results on six molecules are retold here after PMC12440825, “SNARE disassembly requires Sec18/NSF side loading” (Nature Structural & Molecular Biology, 2025).

B1: Sec9 (401–651) (domain or fragment, S. cerevisiae, UniProt P40357 401-651, looked up)
chain: QRGYKTFEEIQKEEEARQQQEEDEAVDEIKQEIKFTKQSSVASTRNTLKMAQDAERAGMNTLGMLGHQSEQLNNVEGNLDLMKVQNKVADEKVAELKKLNRSILAVHVSNPFNSKRRRREREEQLKNRKIEEKLMREQTSQQLSQSTQRIEGAMNANNNISEVRERYQRKNVLEKAKRYQFENDEEDDEMELEIDRNLDQIQQVSNRLKKMALTTGKELDSQQKRLNNIEESTDDLDINLHMNTNRLAGIR
notes: Sec9, S. cerevisiae SNAP25-like SNARE, residues 401-651; source: E. coli BL21(DE3), purified (Ni-NTA, TEV, MonoS, SEC); not shown: His6, N-terminal, cleaved
B3: Sec18 (recombinant, complete coding sequence) (enzyme, S. cerevisiae, UniProt P18759 1-758, looked up)
chain: MFKIPGFGKAAANHTPPDMTNMDTRTRHLKVSNCPNNSYALANVAAVSPNDFPNNIYIIIDNLFVFTTRHSNDIPPGTIGFNGNQRTWGGWSLNQDVQAKAFDLFKYSGKQSYLGSIDIDISFRARGKAVSTVFDQDELAKQFVRCYESQIFSPTQYLIMEFQGHFFDLKIRNVQAIDLGDIEPTSAVATGIETKGILTKQTQINFFKGRDGLVNLKSSNSLRPRSNAVIRPDFKFEDLGVGGLDKEFTKIFRRAFASRIFPPSVIEKLGISHVKGLLLYGPPGTGKTLIARKIGTMLNAKEPKIVNGPEILSKYVGSSEENIRNLFKDAEAEYRAKGEESSLHIIIFDELDSVFKQRGSRGDGTGVGDNVVNQLLAKMDGVDQLNNILVIGMTNRKDLIDSALLRPGRFEVQVEIHLPDEKGRLQIFDIQTKKMRENNMMSDDVNLAELAALTKNFSGAEIEGLVKSASSFAINKTVNIGKGATKLNTKDIAKLKVTREDFLNALNDVTPAFGISEEDLKTCVEGGMMLYSERVNSILKNGARYVRQVRESDKSRLVSLLIHGPAGSGKTALAAEIALKSGFPFIRLISPNELSGMSESAKIAYIDNTFRDAYKSPLNILVIDSLETLVDWVPIGPRFSNNILQMLKVALKRKPPQDRRLLIMTTTSAYSVLQQMDILSCFDNEIAVPNMTNLDELNNVMIESNFLDDAGRVKVINELSRSCPNFNVGIKKTLTNIETARHDEDPVNELVELMTQSA
notes: Hexamer in the y20S complex; heptamer or split hexamer with ATP and Mg2+; No TEV cleavage is described for the preparation used for y20S; also called wild-type Sec18; substrate-free Sec18; source: E. coli BL21(DE3), purified (Ni-NTA, SEC)
B4: Sso1 (1–265) (domain or fragment, S. cerevisiae, UniProt P32867 1-265, looked up)
chain: MSYNNPYQLETPFEESYELDEGSSAIGAEGHDFVGFMNKISQINRDLDKYDHTINQVDSLHKRLLTEVNEEQASHLRHSLDNFVAQATDLQFKLKNEIKSAQRDGIHDTNKQAQAENSRQRFLKLIQDYRIVDSNYKEENKEQAKRQYMIIQPEATEDEVEAAISDVGGQQIFSQALLNANRRGEAKTALAEVQARHQELLKLEKSMAELTQLFNDMEELVIEQQENVDVIDKNVEDAQLDVEQGVGHTDKAVKSARKARKNKIR
notes: Sso1, S. cerevisiae syntaxin-like SNARE, residues 1-265 (Habc domain, linker, SNARE domain; no transmembrane domain); also called SNARE Sso1; source: E. coli BL21(DE3), purified (Ni-NTA, TEV, ion exchange, SEC); not shown: His6, N-terminal, cleaved

The data set “Sso1 (1–265)” deals with B4. In words: cryo-EM structure; y20S complex in the nonhydrolyzing condition: preformed ySNARE complex + Sec17 + EDTA-quenched Sec18 (Sec18:SNARE:Sec17 1:1.67:10) in 50 mM Tris, 150 mM NaCl, 1 mM TCEP, 1 mM ATP, 1 mM EDTA pH 8, Superose 6; eight 3D classes. Conditions: both partners purified.
Data set [1] deals with the molecule itself. Briefly: cryo-EM structure; substrate-free NSF in the hydrolyzing condition: buffer with ATP and 1 mM MgCl2 instead of EDTA, final SEC; four classes, 3DVA of class 3.
Data set [2] concerns the molecule itself. In words: cryo-EM structure; y20S complex in the nonhydrolyzing condition: preformed ySNARE complex + Sec17 + EDTA-quenched Sec18 (Sec18:SNARE:Sec17 1:1.67:10) in 50 mM Tris, 150 mM NaCl, 1 mM TCEP, 1 mM ATP, 1 mM EDTA pH 8, Superose 6; eight 3D classes.
Data set [3] concerns the molecule itself. Briefly: cryo-EM structure; y20S complex in the hydrolyzing condition: as nonhydrolyzing, excess MgCl2 added on the grid, 7 s before vitrification; classes 1-4.
In data set [4] the target is B3. Described as above. Conditions: both partners purified.
The target in the data set “Sec9 (401–651)” is B1. Briefly: cryo-EM structure; y20S complex in the nonhydrolyzing condition: preformed ySNARE complex + Sec17 + EDTA-quenched Sec18 (Sec18:SNARE:Sec17 1:1.67:10) in 50 mM Tris, 150 mM NaCl, 1 mM TCEP, 1 mM ATP, 1 mM EDTA pH 8, Superose 6; eight 3D classes. As to conditions: both partners purified.
Data set [5] addresses T1, yeast exocytic SNARE complex Sso1–Sec9–Snc1 (S. cerevisiae, UniProt P32867 1-265; P40357 401-651; P31109 1-93).
T1 construct: Sso1, S. cerevisiae, residues 1-265; as m4; Sec9, S. cerevisiae, residues 401-651; as m5; Snc1, S. cerevisiae, residues 1-93; as m6; also called ySNARE complex; yeast exocytic complex; source: E. coli BL21(DE3), each SNARE purified, mixed 1:1:1 in 6 M GdHCl, dialysed, purified (MonoQ); not shown: His6, N-terminal, cleaved; copies: 1 + 1 + 1
T1 sequence (looked up) 1: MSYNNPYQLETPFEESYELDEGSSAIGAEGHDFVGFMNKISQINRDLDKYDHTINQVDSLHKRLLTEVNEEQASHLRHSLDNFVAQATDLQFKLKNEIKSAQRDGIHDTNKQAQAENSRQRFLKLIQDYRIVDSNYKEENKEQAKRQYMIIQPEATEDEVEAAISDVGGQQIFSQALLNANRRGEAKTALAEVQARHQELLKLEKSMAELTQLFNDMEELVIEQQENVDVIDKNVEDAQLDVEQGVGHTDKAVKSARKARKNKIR
T1 sequence (looked up) 2: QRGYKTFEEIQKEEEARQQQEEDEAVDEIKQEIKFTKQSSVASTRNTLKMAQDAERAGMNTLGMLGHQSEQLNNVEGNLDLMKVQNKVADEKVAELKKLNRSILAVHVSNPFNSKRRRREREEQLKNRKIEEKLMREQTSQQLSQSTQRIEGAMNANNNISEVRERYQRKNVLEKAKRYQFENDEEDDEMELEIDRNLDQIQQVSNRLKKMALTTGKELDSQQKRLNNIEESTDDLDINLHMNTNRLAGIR
T1 sequence (looked up) 3: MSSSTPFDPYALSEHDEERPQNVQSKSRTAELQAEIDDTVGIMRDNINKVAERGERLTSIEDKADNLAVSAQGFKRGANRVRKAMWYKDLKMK
The description is as above. As to conditions: both partners purified.

With B1, the binding result in the data set with Sso1 (1–265) was “binds”.

B2: NSF (N-ethylmaleimide-sensitive factor) (enzyme, C. griseus)
chain: MAGRSMQAARCPTDELSLSNCAVVSEKDYQSGQHVIVRTSPNHKYIFTLRTHPSVVPGSVAFSLPQRKWAGLSIGQEIEVALYSFDKAKQCIGTMTIEIDFLQKKNIDSNPYDTDKMAAEFIQQFNNQAFSVGQQLVFSFNDKLFGLLVKDIEAMDPSILKGEPASGKRQKIEVGLVVGNSQVAFEKAENSSLNLIGKAKTKENRQSIINPDWNFEKMGIGGLDKEFSDIFRRAFASRVFPPEIVEQMGCKHVKGILLYGPPGCGKTLLARQIGKMLNAREPKVVNGPEILNKYVGESEANIRKLFADAEEEQRRLGANSGLHIIIFDEIDAICKQRGSMAGSTGVHDTVVNQLLSKIDGVEQLNNILVIGMTNRPDLIDEALLRPGRLEVKMEIGLPDEKGRLQILHIHTARMRGHQLLSADVDIKELAVETKNFSGAELEGLVRAAQSTAMNRHIKASTKVEVDMEKAESLQVTRGDFLASLENDIKPAFGTNQEDYASYIMNGIIKWGDPVTRVLDDGELLVQQTKNSDRTPLVSVLLEGPPHSGKTALAAKIAEESNFPFIKICSPDKMIGFSETAKCQAMKKIFDDAYKSQLSCVVVDDIERLLDYVPIGPRFSNLVLQALLVLLKKAPPQGRKLLIIGTTSRKDVLQEMEMLNAFSTTIHVPNIATGEQLLEALELLGNFKDKERTTIAQQVKGKKVWIGIKKLLMLIEMSLQMDPEYRVRKFLALLREEGASPLDFD
notes: Heptamer (class 1) or hexamer (classes 2-4) with ATP and Mg2+; also called substrate-free NSF; high-purity NSF
B2: the stoichiometry N (commonly the number of molecules, sites or subunits per partner or assembly) in data set [1] turned out to be 7.

As for B3, the “stoichiometry N” value in data set [2] was found to be 6; in data set [3], 7.

As to B4, the binding result in data set [4] is given as “binds”.

B5: Snc1 (1–93) (domain or fragment, S. cerevisiae, UniProt P31109 1-93, looked up)
chain: MSSSTPFDPYALSEHDEERPQNVQSKSRTAELQAEIDDTVGIMRDNINKVAERGERLTSIEDKADNLAVSAQGFKRGANRVRKAMWYKDLKMK
notes: Snc1, S. cerevisiae synaptobrevin-like SNARE, residues 1-93; source: E. coli BL21(DE3), purified (Ni-NTA, TEV, ion exchange, SEC); not shown: His6, N-terminal, cleaved
Consider B5, for which the binding result in the data set with Sso1 (1–265) and with Sec9 (401–651) was “binds” in each case.

B6: Sec17 (natural protein, S. cerevisiae, UniProt P32602 1-292, looked up)
chain: MSDPVELLKRAEKKGVPSSGFMKLFSGSDSYKFEEAADLCVQAATIYRLRKELNLAGDSFLKAADYQKKAGNEDEAGNTYVEAYKCFKSGGNSVNAVDSLENAIQIFTHRGQFRRGANFKFELGEILENDLHDYAKAIDCYELAGEWYAQDQSVALSNKCFIKCADLKALDGQYIEASDIYSKLIKSSMGNRLSQWSLKDYFLKKGLCQLAATDAVAAARTLQEGQSEDPNFADSRESNFLKSLIDAVNEGDSEQLSEHCKEFDNFMRLDKWKITILNKIKESIQQQEDDLL
notes: also called Sec17/α-SNAP; adaptor Sec17; source: E. coli BL21(DE3), purified (Ni-NTA, TEV, MonoQ, SEC); not shown: His10, N-terminal, cleaved
Consider B6, for which the binding result in data set [5] and in data set [4] was “binds” throughout.
